Results from US20240410826A1.
pKd: −log10 of the molar value.

How the values were obtained:
[1] = molecular target: Human colostrum IgA (Catalog No. 16-13-090701, Athens Research and Technology) (human); assay: ESM counting of landing events on BSA-coated ITO; 5 nM anti-IgA mixed with 5 nM IgA in free solution; fraction of IgA still free in the first minute
[2] = molecular target: Human colostrum IgA (Catalog No. 16-13-090701, Athens Research and Technology) (human); assay: ESM parallel kinetics; binding in free solution in a mixture of anti-IgA, IgA and IgM, 2.5 nM each; fit of IgA monomer ratio decay
[3] = molecular target: Human colostrum IgA (Catalog No. 16-13-090701, Athens Research and Technology) (human); assay: ESM real-time size (DH) of PEG-tethered single IgA on ITO after adding anti-IgA; mean of ~60 binding events
[4] = molecular target: Human colostrum IgA (Catalog No. 16-13-090701, Athens Research and Technology) (human); assay: ESM real-time charge (q) of PEG-tethered single IgA on ITO after adding anti-IgA; mean of ~60 binding events
[5] = molecular target: Human colostrum IgA (Catalog No. 16-13-090701, Athens Research and Technology) (human); assay: ESM digital single-molecule counting; 20 nM IgA flowed over anti-IgA fixed on cover glass; KD=koff/kon
[6] = molecular target: Human colostrum IgA (Catalog No. 16-13-090701, Athens Research and Technology) (human); assay: single-objective ESM digital counting; 5 nM IgA flowed over anti-IgA fixed on ITO; first-order fit
[7] = molecular target: Human colostrum IgA (Catalog No. 16-13-090701, Athens Research and Technology) (human); assay: ESM counting of landing events of IgA monomer and complex on BSA-coated ITO; binding in free solution; fit of monomer ratio decay
[8] = molecular target: Human colostrum IgA (Catalog No. 16-13-090701, Athens Research and Technology) (human); assay: ESM end-point size histogram of IgA/BSA mixture tethered on ITO, before (12.1±1.2 nm) and after (13.6±2.1 nm) adding anti-IgA; ~420 molecules
[9] = molecular target: Human colostrum IgA (Catalog No. 16-13-090701, Athens Research and Technology) (human); assay: single-objective ESM digital counting; 5 nM IgA flowed over anti-IgA fixed on ITO; KD=koff/kon
[10] = molecular target: Human colostrum IgA (Catalog No. 16-13-090701, Athens Research and Technology) (human); assay: ESM digital single-molecule counting; 20 nM IgA flowed over anti-IgA fixed on cover glass; first-order fit
[11] = molecular target: Human colostrum IgA (Catalog No. 16-13-090701, Athens Research and Technology) (human); assay: ESM counting of landing events on BSA-coated ITO; 5 nM anti-IgA mixed with 5 nM IgA in free solution; fraction of IgA still free in the third minute

For “Goat anti-human IgA (IgG, Catalog No. STAR141, BIO-RAD) (antibody)”, which IgA monomer ratio (first minute) [1] is on record?
Its IgA monomer ratio (first minute) is 1.

And the pKd [2]?
Its pKd is 8.74.

What about the koff [2] of the same substance?
The koff was 0.00148 s⁻¹.

And the kon [2]?
The kon was 881000 M⁻¹ s⁻¹.

And the average size change on antibody binding [3]?
The average size change on antibody binding was 1.7 nm.

And the average charge change on antibody binding [4]?
Its average charge change on antibody binding is 1.8 e.

And the pKd [5]?
The pKd was 9.06.

And the koff [6]?
The koff was 0.0002 s⁻¹.

And the kon [6]?
Its kon is 230000 M⁻¹ s⁻¹.

What about the pKd [7] of the same substance?
Its pKd is 9.08.

What about the koff [7] of the same substance?
Its koff is 0.00173 s⁻¹.

What about the kon [7] of the same substance?
Its kon is 2.18e+06 M⁻¹ s⁻¹.

What about the shift of the IgA size peak after antibody binding [8] of the same substance?
Its shift of the IgA size peak after antibody binding is 1.5 nm.

What about the pKd [9] of the same substance?
Its pKd is 9.06.

And the koff [10]?
The koff was 9.6e-05 s⁻¹.

And the kon [10]?
Its kon is 110000 M⁻¹ s⁻¹.

And the IgA monomer ratio (third minute) [11]?
The IgA monomer ratio (third minute) was 0.5.
